Measurements reported in IntAct's records for PubMed 12446441.

B1: Ras-related protein Rab-27A (Homo sapiens), P51159-1 (parent)
chain: MSDGDYDYLIKFLALGDSGVGKTSVLYQYTDGKFNSKFITTVGIDFREKRVVYRASGPDGATGRGQRIHLQLWDTAGQERFRSLTTAFFRDAMGFLLLFDLTNEQSFLNVRNWISQLQMHAYCENPDIVLCGNKSDLEDQRVVKEEEAIALAEKYGIPYFETSAANGTNISQAIEMLLDLIMKRMERCVDKSWIPEGVVRSNGHASTDQLSEEKEKGACGC
partner: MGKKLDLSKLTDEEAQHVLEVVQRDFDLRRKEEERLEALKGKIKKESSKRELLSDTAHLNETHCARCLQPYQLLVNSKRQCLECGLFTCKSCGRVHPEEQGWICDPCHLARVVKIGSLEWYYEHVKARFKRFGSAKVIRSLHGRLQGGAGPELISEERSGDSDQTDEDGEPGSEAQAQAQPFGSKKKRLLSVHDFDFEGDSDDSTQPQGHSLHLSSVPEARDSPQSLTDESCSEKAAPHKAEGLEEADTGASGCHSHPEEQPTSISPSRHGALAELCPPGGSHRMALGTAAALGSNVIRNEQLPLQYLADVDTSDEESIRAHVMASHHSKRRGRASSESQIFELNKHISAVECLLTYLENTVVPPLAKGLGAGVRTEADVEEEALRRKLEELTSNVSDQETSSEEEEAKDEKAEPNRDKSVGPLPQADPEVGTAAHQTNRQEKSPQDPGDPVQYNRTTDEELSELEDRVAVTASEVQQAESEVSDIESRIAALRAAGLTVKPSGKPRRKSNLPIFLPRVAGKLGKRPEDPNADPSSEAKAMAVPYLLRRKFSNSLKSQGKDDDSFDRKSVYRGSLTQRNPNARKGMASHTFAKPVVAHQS

Variants of: B1
Details: with melph_human MLPH

With MSDGDYDYLIKFLALGDSGVGKNSVLYQYTDGKFNSKFITTVGIDFREKRVVYRASGPDGATGRGQRIHLQLWDTAGQERFRSLTTAFFRDAMGFLLLFDLTNEQSFLNVRNWISQLQMHAYCENPDIVLCGNKSDLEDQRVVKEEEAIALAEKYGIPYFETSAANGTNISQAIEMLLDLIMKRMERCVDKSWIPEGVVRSNGHASTDQLSEEKEKGACGC [T23N] as the variant, how does the “effect of a mutation on the interaction” value read?
Its value is “disrupting interaction strength”.

Variants of: B1
Details: with melph_human MLPH
Remark: another data set of the same source

How did the “effect of a mutation on the interaction” value turn out when MSDGDYDYLIKFLALGDSGVGKTSVLYQYTDGKFNSKFITTVGIDFREKRVVYRASGPDGATGRGQRIHLQLGDTAGQERFRSLTTAFFRDAMGFLLLFDLTNEQSFLNVRNWISQLQMHAYCENPDIVLCGNKSDLEDQRVVKEEEAIALAEKYGIPYFETSAANGTNISQAIEMLLDLIMKRMERCVDKSWIPEGVVRSNGHASTDQLSEEKEKGACGC [W73G] was run?
The value was “disrupting interaction strength”.

Which “effect of a mutation on the interaction” value does the source give for MSDGDYDYLIKFLALGDSGVGKTSVLYQYTDGKFNSKFITTVGIDFREKRVVYRASGPDGATGRGQRIHLQLSDTAGQERFRSLTTAFFRDAMGFLLLFDLTNEQSFLNVRNWISQLQMHAYCENPDIVLCGNKSDLEDQRVVKEEEAIALAEKYGIPYFETSAANGTNISQAIEMLLDLIMKRMERCVDKSWIPEGVVRSNGHASTDQLSEEKEKGACGC [W73S] here?
Its value is “disrupting interaction strength”.

MSDGDYDYLIKFLALGDSGVGKTSVLYQYTDGKFNSKFITTVGIDFREKRVVYRASGPDGATGRGQRIHLQLLDTAGQERFRSLTTAFFRDAMGFLLLFDLTNEQSFLNVRNWISQLQMHAYCENPDIVLCGNKSDLEDQRVVKEEEAIALAEKYGIPYFETSAANGTNISQAIEMLLDLIMKRMERCVDKSWIPEGVVRSNGHASTDQLSEEKEKGACGC [W73L] was tested. Which “effect of a mutation on the interaction” value did it give?
Its value is “disrupting interaction strength”.
